In IntAct's records for PubMed 31515488:

B1: Protein phosphatase 1 regulatory inhibitor subunit 16B (Homo sapiens), Q96T49 (parent)
chain: MASHVDLLTELQLLEKVPTLERLRAAQKRRAQQLKKWAQYEQDLQHRKRKHERKRSTGGRRKKVSFEASVALLEASLRNDAEEVRYFLKNKVSPDLCNEDGLTALHQCCIDNFEEIVKLLLSHGANVNAKDNELWTPLHAAATCGHINLVKILVQYGADLLAVNSDGNMPYDLCEDEPTLDVIETCMAYQGITQEKINEMRVAPEQQMIADIHCMIAAGQDLDWIDAQGATLLHIAGANGYLRAAELLLDHGVRVDVKDWDGWEPLHAAAFWGQMQMAELLVSHGASLSARTSMDEMPIDLCEEEEFKVLLLELKHKHDVIMKSQLRHKSSLSRRTSSAGSRGKVVRRASLSDRTNLYRKEYEGEAILWQRSAAEDQRTSTYNGDIRETRTDQENKDPNPRLEKPVLLSEFPTKIPRGELDMPVENGLRAPVSAYQYALANGDVWKVHEVPDYSMAYGNPGVADATPPWSSYKEQSPQTLLELKRQRAAAKLLSHPFLSTHLGSSMARTGESSSEGKAPLIGGRTSPYSSNGTSVYYTVTSGDPPLLKFKAPIEEMEEKVHGCCRIS
partner: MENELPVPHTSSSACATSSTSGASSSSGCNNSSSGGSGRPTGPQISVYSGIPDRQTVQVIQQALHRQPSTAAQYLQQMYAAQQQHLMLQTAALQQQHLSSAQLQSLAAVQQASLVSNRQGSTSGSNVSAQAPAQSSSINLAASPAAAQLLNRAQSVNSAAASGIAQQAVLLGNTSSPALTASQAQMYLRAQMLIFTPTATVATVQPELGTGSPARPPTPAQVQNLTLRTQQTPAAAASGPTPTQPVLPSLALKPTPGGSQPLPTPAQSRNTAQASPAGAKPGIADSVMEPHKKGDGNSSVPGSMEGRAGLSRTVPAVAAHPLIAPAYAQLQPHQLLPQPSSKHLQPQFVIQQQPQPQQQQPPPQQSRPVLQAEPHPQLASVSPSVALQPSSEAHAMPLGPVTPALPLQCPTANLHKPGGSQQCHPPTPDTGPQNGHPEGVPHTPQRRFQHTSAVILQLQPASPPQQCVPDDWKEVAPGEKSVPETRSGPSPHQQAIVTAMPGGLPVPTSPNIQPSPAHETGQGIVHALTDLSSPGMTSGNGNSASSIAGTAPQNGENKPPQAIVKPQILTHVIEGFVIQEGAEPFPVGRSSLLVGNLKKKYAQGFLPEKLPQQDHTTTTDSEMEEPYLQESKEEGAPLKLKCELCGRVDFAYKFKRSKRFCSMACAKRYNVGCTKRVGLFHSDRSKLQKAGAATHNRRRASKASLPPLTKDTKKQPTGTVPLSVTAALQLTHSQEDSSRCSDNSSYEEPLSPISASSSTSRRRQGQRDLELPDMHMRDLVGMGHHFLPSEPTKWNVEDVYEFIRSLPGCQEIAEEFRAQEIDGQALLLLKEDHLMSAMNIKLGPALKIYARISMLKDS
B2: Syntenin-1 (Homo sapiens), O00560 (parent)
chain: MSLYPSLEDLKVDKVIQAQTAFSANPANPAILSEASAPIPHDGNLYPRLYPELSQYMGLSLNEEEIRANVAVVSGAPLQGQLVARPSSINYMVAPVTGNDVGIRRAEIKQGIREVILCKDQDGKIGLRLKSIDNGIFVQLVQANSPASLVGLRFGDQVLQINGENCAGWSSDKAHKVLKQAFGEKITMTIRDRPFERTITMHKDSTGHVGFIFKNGKITSIVKDSSAARNGLLTEHNICEINGQNVIGLKDSQIADILSTSGTVVTITIMPAFIFEHIIKRMAPSIMKSLMDHTIPEV
partner: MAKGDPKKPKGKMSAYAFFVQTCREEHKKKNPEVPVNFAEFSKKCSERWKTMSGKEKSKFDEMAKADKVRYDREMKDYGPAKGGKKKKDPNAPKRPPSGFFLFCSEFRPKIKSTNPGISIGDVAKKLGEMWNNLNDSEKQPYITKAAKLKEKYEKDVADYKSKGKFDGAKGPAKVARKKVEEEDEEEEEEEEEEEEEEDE
B3: Four and a half LIM domains protein 3 (Homo sapiens), Q13643 (parent)
chain: MSESFDCAKCNESLYGRKYIQTDSGPYCVPCYDNTFANTCAECQQLIGHDSRELFYEDRHFHEGCFRCCRCQRSLADEPFTCQDSELLCNDCYCSAFSSQCSACGETVMPGSRKLEYGGQTWHEHCFLCSGCEQPLGSRSFVPDKGAHYCVPCYENKFAPRCARCSKTLTQGGVTYRDQPWHRECLVCTGCQTPLAGQQFTSRDEDPYCVACFGELFAPKCSSCKRPIVGLGGGKYVSFEDRHWHHNCFSCARCSTSLVGQGFVPDGDQVLCQGCSQAGP
partner: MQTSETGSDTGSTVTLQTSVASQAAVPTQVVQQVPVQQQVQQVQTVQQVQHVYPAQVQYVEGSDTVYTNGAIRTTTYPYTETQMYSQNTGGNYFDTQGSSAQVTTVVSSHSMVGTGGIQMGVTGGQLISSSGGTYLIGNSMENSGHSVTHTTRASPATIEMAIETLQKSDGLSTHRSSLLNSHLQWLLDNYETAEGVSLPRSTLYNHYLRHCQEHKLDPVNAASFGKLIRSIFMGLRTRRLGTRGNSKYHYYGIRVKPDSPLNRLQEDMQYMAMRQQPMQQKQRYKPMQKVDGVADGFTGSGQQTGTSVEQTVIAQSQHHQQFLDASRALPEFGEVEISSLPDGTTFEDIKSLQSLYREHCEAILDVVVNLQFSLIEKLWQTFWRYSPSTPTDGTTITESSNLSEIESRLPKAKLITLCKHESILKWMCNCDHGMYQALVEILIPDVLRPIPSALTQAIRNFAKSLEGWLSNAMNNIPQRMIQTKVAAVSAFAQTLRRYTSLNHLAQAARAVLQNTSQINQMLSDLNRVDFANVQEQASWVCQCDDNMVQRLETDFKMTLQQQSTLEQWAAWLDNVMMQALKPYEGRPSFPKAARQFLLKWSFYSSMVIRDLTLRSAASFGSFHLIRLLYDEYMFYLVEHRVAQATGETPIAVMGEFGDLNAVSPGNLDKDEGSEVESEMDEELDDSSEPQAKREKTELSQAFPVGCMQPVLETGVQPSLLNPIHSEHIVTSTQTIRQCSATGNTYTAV
B4: Serine/threonine-protein kinase PAK 5 (Homo sapiens), Q9P286 (parent)
chain: MFGKKKKKIEISGPSNFEHRVHTGFDPQEQKFTGLPQQWHSLLADTANRPKPMVDPSCITPIQLAPMKTIVRGNKPCKETSINGLLEDFDNISVTRSNSLRKESPPTPDQGASSHGPGHAEENGFITFSQYSSESDTTADYTTEKYREKSLYGDDLDPYYRGSHAAKQNGHVMKMKHGEAYYSEVKPLKSDFARFSADYHSHLDSLSKPSEYSDLKWEYQRASSSSPLDYSFQFTPSRTAGTSGCSKESLAYSESEWGPSLDDYDRRPKSSYLNQTSPQPTMRQRSRSGSGLQEPMMPFGASAFKTHPQGHSYNSYTYPRLSEPTMCIPKVDYDRAQMVLSPPLSGSDTYPRGPAKLPQSQSKSGYSSSSHQYPSGYHKATLYHHPSLQSSSQYISTASYLSSLSLSSSTYPPPSWGSSSDQQPSRVSHEQFRAALQLVVSPGDPREYLANFIKIGEGSTGIVCIATEKHTGKQVAVKKMDLRKQQRRELLFNEVVIMRDYHHDNVVDMYSSYLVGDELWVVMEFLEGGALTDIVTHTRMNEEQIATVCLSVLRALSYLHNQGVIHRDIKSDSILLTSDGRIKLSDFGFCAQVSKEVPKRKSLVGTPYWMAPEVISRLPYGTEVDIWSLGIMVIEMIDGEPPYFNEPPLQAMRRIRDSLPPRVKDLHKVSSVLRGFLDLMLVREPSQRATAQELLGHPFLKLAGPPSCIVPLMRQYRHH
partner: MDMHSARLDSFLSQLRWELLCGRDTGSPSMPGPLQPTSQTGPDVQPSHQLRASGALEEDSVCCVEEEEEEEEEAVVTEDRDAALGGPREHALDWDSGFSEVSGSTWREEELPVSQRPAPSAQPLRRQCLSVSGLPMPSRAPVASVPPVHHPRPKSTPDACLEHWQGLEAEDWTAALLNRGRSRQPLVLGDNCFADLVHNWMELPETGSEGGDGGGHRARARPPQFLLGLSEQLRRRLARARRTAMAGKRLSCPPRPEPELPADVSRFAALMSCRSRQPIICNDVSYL
B5: "Peptide-N(4)-(N-acetyl-beta-glucosaminyl)asparagine amidase" (Homo sapiens), Q96IV0 (parent)
chain: MAAAALGSSSGSASPAVAELCQNTPETFLEASKLLLTYADNILRNPNDEKYRSIRIGNTAFSTRLLPVRGAVECLFEMGFEEGETHLIFPKKASVEQLQKIRDLIAIERSSRLDGSNKSHKVKSSQQPAASTQLPTTPSSNPSGLNQHTRNRQGQSSDPPSASTVAADSAILEVLQSNIQHVLVYENPALQEKALACIPVQELKRKSQEKLSRARKLDKGINISDEDFLLLELLHWFKEEFFHWVNNVLCSKCGGQTRSRDRSLLPSDDELKWGAKEVEDHYCDACQFSNRFPRYNNPEKLLETRCGRCGEWANCFTLCCRAVGFEARYVWDYTDHVWTEVYSPSQQRWLHCDACEDVCDKPLLYEIGWGKKLSYVIAFSKDEVVDVTWRYSCKHEEVIARRTKVKEALLRDTINGLNKQRQLFLSENRRKELLQRIIVELVEFISPKTPKPGELGGRISGSVAWRVARGEMGLQRKETLFIPCENEKISKQLHLCYNIVKDRYVRVSNNNQTISGWENGVWKMESIFRKVETDWHMVYLARKEGSSFAYISWKFECGSVGLKVDSISIRTSSQTFQTGTVEWKLRSDTAQVELTGDNSLHSYADFSGATEVILEAELSRGDGDVAWQHTQLFRQSLNDHEENCLEIIIKFSDL
partner: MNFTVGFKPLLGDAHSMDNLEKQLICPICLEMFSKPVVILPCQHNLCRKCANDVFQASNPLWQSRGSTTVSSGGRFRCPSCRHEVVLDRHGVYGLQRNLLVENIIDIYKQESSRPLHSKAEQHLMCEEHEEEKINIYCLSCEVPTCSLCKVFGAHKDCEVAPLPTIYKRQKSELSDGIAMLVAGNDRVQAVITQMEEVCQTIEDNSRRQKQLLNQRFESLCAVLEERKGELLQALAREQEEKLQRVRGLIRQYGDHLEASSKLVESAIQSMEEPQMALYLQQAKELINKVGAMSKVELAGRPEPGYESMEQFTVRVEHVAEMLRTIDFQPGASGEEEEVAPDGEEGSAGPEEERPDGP

Variants of: B1
Details: with phc2_human PHC2, Q8IXK0
In the case of P519S, the “effect of a mutation on the interaction” value is reported as “with no effect”.

Variants of: B2
Details: with hmgb3_human HMGB3, O15347
In the case of K124R, the “effect of a mutation on the interaction” value is reported as “with no effect”.

Variants of: B3
Details: with rfx3_human RFX3, P48380
With R226H the “effect of a mutation on the interaction” value was “with no effect”.

Variants of: B4
Details: with inka1_human INKA1, Q96EL1
S511N was tested, and the “effect of a mutation on the interaction” value was “with no effect”.

Variants of: B5
Details: with tri54_human TRIM54, Q9BYV2
In the case of V184F, the “effect of a mutation on the interaction” value is reported as “with no effect”. For F292L, the “effect of a mutation on the interaction” value was “with no effect”.
